Experimental data: patent US20150246959A1 (US Dept. of Health and Human Services, published 2015)

Key:
Assay in all cases: cell-based or functional assay
[1] = biological target: MAGE-A3: 243-256 peptide presented by HLA-DP*0401 on 293-CIITA cells (human, UniProt P20036 29-260)
[2] = biological target: MAGE-A3: 243-255 peptide presented by HLA-DP*0401 on 293-CIITA cells (human, UniProt P20036 29-260)
[3] = biological target: MAGE-A3: 243-254 peptide presented by HLA-DP*0401 on 293-CIITA cells (human, UniProt P20036 29-260)
[4] = biological target: MAGE-A3: 243-253 peptide presented by HLA-DP*0401 on 293-CIITA cells (human, UniProt P20036 29-260)
[5] = biological target: MAGE-A3: 245-258 peptide presented by HLA-DP*0401 on 293-CIITA cells (human, UniProt P20036 29-260)
[6] = biological target: MAGE-A3: 246-258 peptide presented by HLA-DP*0401 on 293-CIITA cells (human, UniProt P20036 29-260)
[7] = biological target: MAGE-A3: 247-258 peptide presented by HLA-DP*0401 on 293-CIITA cells (human, UniProt P20036 29-260)
[8] = biological target: MAGE-A3: 248-258 peptide presented by HLA-DP*0401 on 293-CIITA cells (human, UniProt P20036 29-260)
[9] = biological target: MAGE-A3: 249-258 peptide presented by HLA-DP*0401 on 293-CIITA cells (human, UniProt P20036 29-260)
[10] = biological target: MAGE-A6: 248-258 peptide presented by HLA-DP*0401 on 293-CIITA cells (human, UniProt P20036 29-260)
[11] = biological target: MAGE-A2/A12: 248-258 peptide presented by HLA-DP*0401 on 293-CIITA cells (human, UniProt P20036 29-260)
[12] = biological target: MAGE-A4/A9: 249-259 peptide presented by HLA-DP*0401 on 293-CIITA cells (human, UniProt P20036 29-260)
[13] = biological target: MAGE-A8: 251-261 peptide presented by HLA-DP*0401 on 293-CIITA cells (human, UniProt P20036 29-260)
[14] = biological target: MAGE-A1/B4: 241-251 peptide presented by HLA-DP*0401 on 293-CIITA cells (human, UniProt P20036 29-260)
[15] = biological target: MAGE-B2: 250-260 peptide presented by HLA-DP*0401 on 293-CIITA cells (human, UniProt P20036 29-260)
[16] = biological target: MAGE-B10: 250-260 peptide presented by HLA-DP*0401 on 293-CIITA cells (human, UniProt P20036 29-260)
[17] = biological target: MAGE-B16: 252-262 peptide presented by HLA-DP*0401 on 293-CIITA cells (human, UniProt P20036 29-260)
[18] = biological target: MAGE-C1: 113-123 peptide presented by HLA-DP*0401 on 293-CIITA cells (human, UniProt P20036 29-260)
[19] = biological target: MAGE-D4: 300-315 peptide presented by HLA-DP*0401 on 293-CIITA cells (human, UniProt P20036 29-260)
[20] = biological target: MAGE-D2: 413-428 peptide presented by HLA-DP*0401 on 293-CIITA cells (human, UniProt P20036 29-260)
[21] = biological target: MAGE-L2: 582-597 peptide presented by HLA-DP*0401 on 293-CIITA cells (human, UniProt P20036 29-260)
[22] = biological target: MAGE-G1: 220-235 peptide presented by HLA-DP*0401 on 293-CIITA cells (human, UniProt P20036 29-260)
[23] = biological target: Necdin: 237-247 peptide presented by HLA-DP*0401 on 293-CIITA cells (human, UniProt P20036 29-260)
[24] = biological target: MAGE-A3: 243-258 peptide presented by HLA-DP*0401 on 293-CIITA cells (human, UniProt P20036 29-260)

IFN-g (pg/ml); CD4+ T cells of PBMC-1; 293-CIITA pulsed with peptide [1]: 1020 pg/mL
IFN-g (pg/ml); CD4+ T cells of PBMC-2; 293-CIITA pulsed with peptide [1]: 1670 pg/mL
IFN-g (pg/ml); CD4+ T cells of PBMC-1; 293-CIITA pulsed with peptide [2]: 76 pg/mL
IFN-g (pg/ml); CD4+ T cells of PBMC-2; 293-CIITA pulsed with peptide [2]: 111 pg/mL
IFN-g (pg/ml); CD4+ T cells of PBMC-1; 293-CIITA pulsed with peptide [3]: 28 pg/mL
IFN-g (pg/ml); CD4+ T cells of PBMC-2; 293-CIITA pulsed with peptide [3]: 30 pg/mL
IFN-g (pg/ml); CD4+ T cells of PBMC-1; 293-CIITA pulsed with peptide [4]: 0 pg/mL
IFN-g (pg/ml); CD4+ T cells of PBMC-2; 293-CIITA pulsed with peptide [4]: 30 pg/mL
IFN-g (pg/ml); CD4+ T cells of PBMC-1; 293-CIITA pulsed with peptide [5]: 9290 pg/mL
IFN-g (pg/ml); CD4+ T cells of PBMC-2; 293-CIITA pulsed with peptide [5]: 8920 pg/mL
IFN-g (pg/ml); CD4+ T cells of PBMC-1; 293-CIITA pulsed with peptide [6]: 7140 pg/mL
IFN-g (pg/ml); CD4+ T cells of PBMC-2; 293-CIITA pulsed with peptide [6]: 9200 pg/mL
IFN-g (pg/ml); CD4+ T cells of PBMC-1; 293-CIITA pulsed with peptide [7]: 6710 pg/mL
IFN-g (pg/ml); CD4+ T cells of PBMC-2; 293-CIITA pulsed with peptide [7]: 6810 pg/mL
IFN-g (pg/ml); CD4+ T cells of PBMC-1; 293-CIITA pulsed with peptide [8]: 6220 pg/mL
IFN-g (pg/ml); CD4+ T cells of PBMC-2; 293-CIITA pulsed with peptide [8]: 7400 pg/mL
IFN-g (pg/ml); CD4+ T cells of PBMC-1; 293-CIITA pulsed with peptide [9]: 669 pg/mL
IFN-g (pg/ml); CD4+ T cells of PBMC-2; 293-CIITA pulsed with peptide [9]: 922 pg/mL
IFN-g (pg/ml); CD4+ T cells of PBMC-1; 293-CIITA pulsed with peptide [10]: 6440 pg/mL
IFN-g (pg/ml); CD4+ T cells of PBMC-2; 293-CIITA pulsed with peptide [10]: 13200 pg/mL
IFN-g (pg/ml); CD4+ T cells of PBMC-1; 293-CIITA pulsed with peptide [11]: 33 pg/mL
IFN-g (pg/ml); CD4+ T cells of PBMC-2; 293-CIITA pulsed with peptide [11]: 37 pg/mL
IFN-g (pg/ml); CD4+ T cells of PBMC-1; 293-CIITA pulsed with peptide [12]: 0 pg/mL
IFN-g (pg/ml); CD4+ T cells of PBMC-2; 293-CIITA pulsed with peptide [12]: 22 pg/mL
IFN-g (pg/ml); CD4+ T cells of PBMC-1; 293-CIITA pulsed with peptide [13]: 43 pg/mL
IFN-g (pg/ml); CD4+ T cells of PBMC-2; 293-CIITA pulsed with peptide [13]: 39 pg/mL
IFN-g (pg/ml); CD4+ T cells of PBMC-1; 293-CIITA pulsed with peptide [14]: 129 pg/mL
IFN-g (pg/ml); CD4+ T cells of PBMC-2; 293-CIITA pulsed with peptide [14]: 108 pg/mL
IFN-g (pg/ml); CD4+ T cells of PBMC-1; 293-CIITA pulsed with peptide [15]: 0 pg/mL
IFN-g (pg/ml); CD4+ T cells of PBMC-2; 293-CIITA pulsed with peptide [15]: 7 pg/mL
IFN-g (pg/ml); CD4+ T cells of PBMC-1; 293-CIITA pulsed with peptide [16]: 22 pg/mL
IFN-g (pg/ml); CD4+ T cells of PBMC-2; 293-CIITA pulsed with peptide [16]: 28 pg/mL
IFN-g (pg/ml); CD4+ T cells of PBMC-1; 293-CIITA pulsed with peptide [17]: 0 pg/mL
IFN-g (pg/ml); CD4+ T cells of PBMC-2; 293-CIITA pulsed with peptide [17]: 11 pg/mL
IFN-g (pg/ml); CD4+ T cells of PBMC-1; 293-CIITA pulsed with peptide [18]: 9 pg/mL
IFN-g (pg/ml); CD4+ T cells of PBMC-2; 293-CIITA pulsed with peptide [18]: 25 pg/mL
IFN-g (pg/ml); CD4+ T cells of PBMC-1; 293-CIITA pulsed with peptide [19]: 193 pg/mL
IFN-g (pg/ml); CD4+ T cells of PBMC-2; 293-CIITA pulsed with peptide [19]: 194 pg/mL
IFN-g (pg/ml); CD4+ T cells of PBMC-1; 293-CIITA pulsed with peptide [20]: 82 pg/mL
IFN-g (pg/ml); CD4+ T cells of PBMC-2; 293-CIITA pulsed with peptide [20]: 226 pg/mL
IFN-g (pg/ml); CD4+ T cells of PBMC-1; 293-CIITA pulsed with peptide [21]: 45 pg/mL
IFN-g (pg/ml); CD4+ T cells of PBMC-2; 293-CIITA pulsed with peptide [21]: 78 pg/mL
IFN-g (pg/ml); CD4+ T cells of PBMC-1; 293-CIITA pulsed with peptide [22]: 0 pg/mL
IFN-g (pg/ml); CD4+ T cells of PBMC-2; 293-CIITA pulsed with peptide [22]: 25 pg/mL
IFN-g (pg/ml); CD4+ T cells of PBMC-1; 293-CIITA pulsed with peptide [23]: 0 pg/mL
IFN-g (pg/ml); CD4+ T cells of PBMC-2; 293-CIITA pulsed with peptide [23]: 21 pg/mL
IFN-g (pg/ml); CD4+ T cells of PBMC-1; 293-CIITA pulsed with peptide [24]: 10200 pg/mL
IFN-g (pg/ml); CD4+ T cells of PBMC-2; 293-CIITA pulsed with peptide [24]: 10400 pg/mL
B1: 6F9 TCR (TCR)
TCR alpha: QTVTQSQPEMSVQEAETVTLSCTYDTSESDYYLFWYKQPPSRQMILVIRQEAYKQQNATENRFSVNFQKAAKSFSLKISDSQLGDAAMYFCALRSSGTYKYIFGTGTRLKVLANIQNPDPAVYQLRDSKSSDKSVCLFTDFDSQTNVSQSKDSDVYITDKTVLDMRSMDFKSNSAVAWSNKSDFACANAFNNSIIPEDTFFPSPESSCDVKLVEKSFETDTNLNFQNLSVIGFRILLLKVAGFNLLMTLRLWSS
TCR beta: GAGVSQSPSNKVTEKGKDVELRCDPISGHTALYWYRQSLGQGLEFLIYFQGNSAPDKSGLPSDRFSAERTGGSVSTLTIQRTQQEDSAVYLCASIRTGPFFSGNTIYFGEGSWLTVVEDLNKVFPPEVAVFEPSEAEISHTQKATLVCLATGFFPDHVELSWWVNGKEVHSGVSTDPQPLKEQPALNDSRYCLSSRLRVSATFWQNPRNHFRCQVQFYGLSENDEWTQDRAKPVTQIVSAEAWGRADCGFTSVSYQQGVLSATILYEILLGKATLYAVLVSALVLMAMVKRKDF
